Our source for the kon values is article PMC9064986.

The experiment deals with Recombinant human BMP10 growth factor (GF)-domain (R&D Systems) (UniProt O95393). Kind of experiment: SPR (Biacore). The settings on record: BMP10 immobilised on a CM5 Biacore chip; parent: 1.35E+05 M-1s-1. (In general: In SPR one partner is held on a chip, and binding of the other changes the refractive index at the surface.)

By kon is commonly meant the rate constant with which the complex forms.

Recombinant human BMP10 growth factor (GF)-domain (R&D Systems), sequence (O95393 317-424): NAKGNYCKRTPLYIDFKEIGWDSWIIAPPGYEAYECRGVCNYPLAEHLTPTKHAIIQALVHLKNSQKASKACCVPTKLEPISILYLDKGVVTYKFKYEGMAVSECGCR

With “BMPRII extracellular domain (ECD), wild type (from UniProt Q13873-1) ΔGDP (del of Gly, Asp and Pro in the A-loop)”, the kon worked out at 49600 M⁻¹ s⁻¹.
